Test results taken from PMC10382678.

Target: ectoLRP4-AP (alkaline phosphatase-conjugated ectodomain of mouse LRP4) (mouse) (UniProt Q8VI56)
Assay: ELISA; plate-binding assay, competition: 500 nM purified recombinant neural agrin added to 25 nM ectoLRP4-AP on ColQ-coated wells; agrin as the competitor that binds LRP4

ectoLRP4-AP (alkaline phosphatase-conjugated ectodomain of mouse LRP4) (mouse), sequence (Q8VI56 21-1725): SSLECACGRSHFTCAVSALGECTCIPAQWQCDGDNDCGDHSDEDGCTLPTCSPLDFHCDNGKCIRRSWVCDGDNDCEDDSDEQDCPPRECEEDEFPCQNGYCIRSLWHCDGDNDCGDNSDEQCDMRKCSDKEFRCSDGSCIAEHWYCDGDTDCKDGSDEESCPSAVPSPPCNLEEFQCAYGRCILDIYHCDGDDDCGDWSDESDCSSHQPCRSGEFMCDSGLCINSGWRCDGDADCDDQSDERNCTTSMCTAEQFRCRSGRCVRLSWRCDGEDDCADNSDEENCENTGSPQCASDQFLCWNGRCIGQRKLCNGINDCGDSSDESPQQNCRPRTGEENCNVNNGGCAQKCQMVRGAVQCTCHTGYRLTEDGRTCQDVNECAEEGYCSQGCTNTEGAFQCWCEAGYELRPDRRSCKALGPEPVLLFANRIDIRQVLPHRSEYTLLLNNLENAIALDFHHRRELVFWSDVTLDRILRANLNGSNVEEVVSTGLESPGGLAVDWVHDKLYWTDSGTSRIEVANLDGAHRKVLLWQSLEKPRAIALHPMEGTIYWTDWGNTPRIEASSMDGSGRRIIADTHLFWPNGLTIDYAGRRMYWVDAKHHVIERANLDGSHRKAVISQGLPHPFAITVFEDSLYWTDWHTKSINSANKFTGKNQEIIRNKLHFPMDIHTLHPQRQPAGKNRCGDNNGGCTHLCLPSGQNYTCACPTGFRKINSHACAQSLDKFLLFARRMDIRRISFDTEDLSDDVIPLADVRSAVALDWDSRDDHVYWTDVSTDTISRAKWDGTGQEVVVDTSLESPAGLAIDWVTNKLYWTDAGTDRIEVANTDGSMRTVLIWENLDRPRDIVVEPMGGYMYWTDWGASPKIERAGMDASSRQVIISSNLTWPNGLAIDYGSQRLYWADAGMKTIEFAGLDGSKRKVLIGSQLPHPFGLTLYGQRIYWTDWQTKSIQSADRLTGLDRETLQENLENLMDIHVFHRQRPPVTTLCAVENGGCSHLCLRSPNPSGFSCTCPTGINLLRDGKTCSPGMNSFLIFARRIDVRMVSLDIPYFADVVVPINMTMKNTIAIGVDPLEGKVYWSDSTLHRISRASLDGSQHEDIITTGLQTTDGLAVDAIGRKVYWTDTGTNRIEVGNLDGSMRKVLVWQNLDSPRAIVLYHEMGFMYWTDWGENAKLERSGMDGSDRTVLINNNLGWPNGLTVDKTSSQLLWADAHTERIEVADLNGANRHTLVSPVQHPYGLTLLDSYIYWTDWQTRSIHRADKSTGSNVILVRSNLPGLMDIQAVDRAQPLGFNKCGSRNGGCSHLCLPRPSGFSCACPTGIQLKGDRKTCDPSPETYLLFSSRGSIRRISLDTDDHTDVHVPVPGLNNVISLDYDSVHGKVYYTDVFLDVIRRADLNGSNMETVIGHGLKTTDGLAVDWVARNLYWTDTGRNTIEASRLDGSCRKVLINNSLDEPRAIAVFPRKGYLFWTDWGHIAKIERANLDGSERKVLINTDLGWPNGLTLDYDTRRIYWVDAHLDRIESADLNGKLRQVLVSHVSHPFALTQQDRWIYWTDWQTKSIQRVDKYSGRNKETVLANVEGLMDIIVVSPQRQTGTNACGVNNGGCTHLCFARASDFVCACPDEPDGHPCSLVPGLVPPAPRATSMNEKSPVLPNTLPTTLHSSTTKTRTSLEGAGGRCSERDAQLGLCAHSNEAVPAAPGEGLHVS

percent reduction of ectoLRP4-AP (25 nM) binding to ColQ by 500 nM agrin: > 50%
Substance: recombinant rat neural agrin (Sf21-derived C-terminal agrin, His-tagged, R&D Systems) (from UniProt P25304 1-1959) (ligand)
